Test results reported in PMC10998858, “Structure and mechanisms of transport of human Asc1/CD98hc amino acid transporter” (Nature Communications, 2024).

Biological target: T1, human CD98hc (SLC3A2), heavy subunit of the Asc1/CD98hc heterodimer (human, UniProt P08195-2 1-529, N-glycosylation at residues 264, 280, 323 and 405; disulfide bridge from Cys 109 to Cys 154 of Asc1)
T1 construct: CD98hc (SLC3A2), human; residues 61-529 were modelled and the disulfide cysteine is numbered C109, which fits the 529-residue isoform (isoform f is named only for the HeLa construct); also called heavy chain; ancillary subunit; source: HEK293-6E, co-transfected with Asc1, purified as heterodimer in digitonin (Ni-NTA, size exclusion chromatography)
T1 sequence: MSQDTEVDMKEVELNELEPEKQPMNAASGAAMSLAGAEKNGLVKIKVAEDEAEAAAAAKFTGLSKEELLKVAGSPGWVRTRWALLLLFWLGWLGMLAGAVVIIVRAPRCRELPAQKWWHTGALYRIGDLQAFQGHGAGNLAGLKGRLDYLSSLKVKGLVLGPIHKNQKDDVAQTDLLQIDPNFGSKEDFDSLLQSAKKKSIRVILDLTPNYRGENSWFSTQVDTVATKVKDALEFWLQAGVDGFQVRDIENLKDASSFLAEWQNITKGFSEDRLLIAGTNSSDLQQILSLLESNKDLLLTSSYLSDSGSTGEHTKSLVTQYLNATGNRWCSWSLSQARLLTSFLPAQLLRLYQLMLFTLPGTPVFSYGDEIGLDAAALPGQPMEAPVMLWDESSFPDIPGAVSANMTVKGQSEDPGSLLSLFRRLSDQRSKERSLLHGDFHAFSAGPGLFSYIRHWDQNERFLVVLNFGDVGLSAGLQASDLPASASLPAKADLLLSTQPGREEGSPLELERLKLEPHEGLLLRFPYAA
Experiment: cryo-EM structure; heterodimer co-expressed in HEK293-6E, solubilised in 1% digitonin, purified by Ni-NTA and Superdex200 in 20 mM Tris-HCl pH 8.0, 150 mM NaCl, 0.1% digitonin; 1.2-1.5 mg/ml, 10 mM D-Ser added before vitrification (no ligand density found)
Conditions: both partners purified

B1: human Asc1 (SLC7A10), light subunit of the Asc1/CD98hc heterodimer (natural protein)
chain: MAGHTQQPSGRGNPRPAPSPSPVPGTVPGASERVALKKEIGLLSACTIIIGNIIGSGIFISPKGVLEHSGSVGLALFVWVLGGGVTALGSLCYAELGVAIPKSGGDYAYVTEIFGGLAGFLLLWSAVLIMYPTSLAVISMTFSNYVLQPVFPNCIPPTTASRVLSMACLMLLTWVNSSSVRWATRIQDMFTGGKLLALSLIIGVGLLQIFQGHFEELRPSNAFAFWMTPSVGHLALAFLQGSFAFSGWNFLNYVTEEMVDARKNLPRAIFISIPLVTFVYTFTNIAYFTAMSPQELLSSNAVAVTFGEKLLGYFSWVMPVSVALSTFGGINGYLFTYSRLCFSGAREGHLPSLLAMIHVRHCTPIPALLVCCGATAVIMLVGDTYTLINYVSFINYLCYGVTILGLLLLRWRRPALHRPIKVNLLIPVAYLVFWAFLLVFSFISEPMVCGVGVIIILTGVPIFFLGVFWRSKPKCVHRLTESMTHWGQELCFVVYPQDAPEEEENGPCPPSLLPATDKPSKPQ
modifications: disulfide bridge from Cys 154 to Cys 109 of CD98hc
notes: Asc1 (SLC7A10), human; residues 41-489 were modelled in the cryoEM map; The final construct has no GFP; a version with C-terminal eGFP was used only in preliminary trials; also called hAsc1; light chain; source: HEK293-6E, co-transfected with CD98hc, purified as heterodimer in digitonin (Ni-NTA, size exclusion chromatography); not shown: 6xHis, C-terminal, kept
  binding result: binds
